Here are results for one molecule from US20060083734A1, “Composition and method for repairing nerve damage and enhancing functional recovery of nerve” (priority 2004, published 2006).

Holding throughout (format): in vivo, rat
For assay [1], the system named is MCA occluded rats. Description: Accelerating rotarod test after FCI injury. The note with it: topical GDNF 1 μg. The procedure: (§1) Animals: The example conforms to the Guide for the Care and Use of Laboratory Animals, published by the US National Institutes of Health (NIH publication NO. 85-23, revised 1996). Male Long-Evans rats (National Lab. Animal Breeding and Research Center) weighing 300-350 g were used in this study. These animals were housed in a room with controlled temperature (24±1° C.) and humidity (55±5%) under a 12:12 h light-dark cycle. They were allowed free access to food and water.
(§2) Surgical procedure: The technique was a modification of the method of Huang et al (Huang S S, Tsai S K, Chih C L, Chiang L Y, Hsieh H M, Teng C M, Tsai M C. Neuroprotective effect of hexasulfobutylated C60 on rats subjected to focal cerebral ischemia. Free Radic Biol Med. 2001;30:643-649). […]
The accelerating rotarod was used to assess motor deficit following ischemic injury in rats (Hamm R J, Pike B R, O'Dell D M, Lyeth B G, Jenkins L W. The rotarod test: an evaluation of its effectiveness in assessing motor deficits following traumatic brain injury. J Neurotrauma. 1994; 11:187-196). The rats were placed on rungs of the accelerating rotarod and the time the animals remained on the rotarod was measured. […] The time in seconds at which each animal fell off the rungs was recorded. […]
(§3) Statistics. Data are expressed as mean±standard error of mean (S.E.M.). […]

The subject of assay [2] is MCA occluded rats. Description: Infarct volume analysis by TTC staining after MCA occlusion and reperfusion. The note with it: Long-Evans rats, 1 hr MCA occlusion, end of 4th week after FCI injury, topical GDNF 1 μg, mean±SEM, n=6. The procedure:
as §1
Surgical procedure: The technique was a modification of the method of Huang et al (Huang S S, Tsai S K, Chih C L, Chiang L Y, Hsieh H M, Teng C M, Tsai M C. Neuroprotective effect of hexasulfobutylated C60 on rats subjected to focal cerebral ischemia. Free Radic Biol Med. 2001;30:643-649). In brief, each male Long-Evans rat was anesthetized by inhalation of a nitrous oxide/oxygen/halothane (69%:30%:1%) mixture during surgical preparation. Body temperature was maintained during surgery at 37±0.5° C. with a heating pad servo-controlled by a rectal probe. […] Measurements were performed before, during and right after unilateral MCA occlusion.
Focal ischemic infarcts were produced in the right lateral cerebral cortex in the territory of the MCA. Both common carotid arteries were exposed by midline anterior cervical incision. […]

Assay [3] concerns MCA occluded rats. Description: Grasping power test after FCI injury. The note with it: topical GDNF 1 μg. The procedure: as §1, §2
The grasping power test was a modification of the method of Bertelli et al (Bertelli J A, Mira J C. The grasping test: a simple behavioral method for objective quantitative assessment of peripheral nerve regeneration in the rat. J Neurosci Methods. 1995;59:151-155). […] Rats were allowed to grasp the bar while being lifted by the tail with increasing firmness until they loosened their grip and the grasping power was scored.
as §3

Setting [4] is: end of 1st week after FCI injury.
The mark [5] stands for this setting: end of 4th week after FCI injury.

B1: Glial cell line-derived neurotrophic factor (protein, UniProt P39905 78-211, looked up)
Glial cell line-derived …: SPDKQMAVLPRRERNRQAAAANPENSRGKGRRGQRGKNRGCVLTAIHLNVTDLGLGYETKEELIFRYCSGSCDAAETTYDKILKNLSRNRRLVSDKVGQACCRPIAFDDDLSFLDDNLVYHILRKHSAKRCGCI
notes: GDNF (1 μg) dissolved in HBSS solution, topically applied
With B1, the “mean latency to stay on the rotarod, of baseline” value in the assay with MCA occluded rats [1] (setting [4]) amounted to 50.3%; in the assay with MCA occluded rats [1] (setting [5]), 67.3%. In the assay with MCA occluded rats [2], the infarct volume is recorded as 108.0±12.1 mm^3. Also, the results for the “mean value of grasping power, of baseline” value in the assay with MCA occluded rats [3] (setting [4]) and in the assay on MCA occluded rats [3] (setting [5]) were 71.7% and 97.6%, respectively.
